Positions count from the first letter of the chain named. Names may count otherwise.
B1: recombinant Slr1022 protein (N-acetylornithine aminotransferase encoded by slr1022 gene from Synechocystis sp. PCC6803) (enzyme, UniProt P73133 1-429, looked up)
chain: MTYSPVVESVEAQAFAVTDLSPAAEFKTADFDTYVMNTYGRFPIAIARGQGSTLWDTEGKSYLDFVAGIATCTLGHAHPALVRAVSDQIQKLHHVSNLYYIPEQGELAKWIVEHSCADRVFFCNSGAEANEAAIKLVRKYAHTVLDFLEQPVILTAKASFHGRTLATITATGQPKYQQYFDPLVPGFDYVPYNDIRSLENKVADLDEGNSRVAAIFLEPLQGEGGVRPGDLAYFKRVREICDQNDILLVFDEVQVGVGRTGKLWGYEHLGVEPDIFTSAKGLAGGVPIGAMMCKKFCDVFEPGNHASTFGGNPLACAAGLAVLKTIEGDRLLDNVQARGEQLRSGLAEIKNQYPTLFTEVRGWGLINGLEISAESSLTSVEIVKAAMEQGLLLAPAGPKVLRFVPPLVVTEAEIAQAVEILRQAIATLV
notes: N-acetylornithine aminotransferase (AcOAT) encoded by the slr1022 (argD) gene of Synechocystis sp; PCC6803; monomer printed as 49 kDa; The purified protein carries the cofactor PLP as internal aldimine (absorption at 410 nm); also called AcOAT; wild-type Slr1022; source: E. coli BL21 (DE3), pET28a-slr1022, purified (Ni-NTA)
B2: Slr1022 (Synechocystis sp. PCC 6803 substr. Kazusa; S125A) (protein)
chain: B1 chain with S125A
B3: Slr1022 (Synechocystis sp. PCC 6803 substr. Kazusa; D251E) (protein)
chain: B1 chain with D251E
B4: Slr1022 (Synechocystis sp. PCC 6803 substr. Kazusa; Y39F) (protein)
chain: B1 chain with Y39F
B5: Slr1022 (Synechocystis sp. PCC 6803 substr. Kazusa; T308A) (protein)
chain: B1 chain with T308A
B6: Slr1022 (Synechocystis sp. PCC 6803 substr. Kazusa; A127S) (protein)
chain: B1 chain with A127S
B7: Slr1022 (Synechocystis sp. PCC 6803 substr. Kazusa; Q254A) (protein)
chain: B1 chain with Q254A
B8: Slr1022 (Synechocystis sp. PCC 6803 substr. Kazusa; E223S) (protein)
chain: B1 chain with E223S
B9: Slr1022 (Synechocystis sp. PCC 6803 substr. Kazusa; E223A) (protein)
chain: B1 chain with E223A

What was measured:
[1] = biological target: T1, Slr1022 (Synechocystis sp. PCC 6803, UniProt P73133); assay: UV-visible absorption at […] nm (internal aldimine); assay type: binding; details: 100 mmol/L Tris-HCl pH 8.5; covalent (Schiff base)
T1 construct: gene argD
T1 sequence (P73133 1-429): B1 chain

[2] = biological target: the molecule itself; assay: SEC; FPLC, Bio-Rad NGC system, ENrich SEC 650 gel filtration column, mobile phase standard PBS without exogenous PLP; mass calibrated with myoglobin, ovalbumin, bovine serum albumin and gamma-globulin
[3] = substrate: NCCC[C@H](N)C(=O)O; assay: purified protein; details: 0.5 mmol/L α-KG, 0.1 mmol/L PLP, 6 mmol/L NAD+, 100 mmol/L Tris-HCl pH 8.5, 25 °C, apparent
[4] = substrate: NCCCC(=O)O; assay: purified protein; details: 0.5 mmol/L α-KG, 0.05 mmol/L PLP, 2 mmol/L Mg2+, 2 mmol/L NADP+, 100 mmol/L Tris-HCl pH 8.5, 25 °C, apparent
[5] = substrate: O=C(O)CCC(=O)C(=O)O; assay: purified protein; assay type: biochemical, Synechocystis sp. PCC 6803; details: 100 mmol/L Orn as amino donor, 0.1 mmol/L PLP, 6 mmol/L NAD+, 100 mmol/L Tris-HCl pH 8.5, 25 °C, apparent
[6] = substrate: CC(=O)N[C@@H](CCCN)C(=O)O; assay: purified protein; assay type: biochemical, Synechocystis sp. PCC 6803; details: saturating α-KG, 0.1 mmol/L PLP, 6 mmol/L NAD+, 100 mmol/L Tris-HCl pH 8.5, 25 °C, apparent

Molecule	Km [6] [µM]	kcat [6] [s⁻¹]	other results
Cc1ncc(COP(=O)(O)O)c(C=O)c1O [PLP]			UV-visible absorption at 410 nm (internal aldimine) [1]: indicating that the cofactor PLP was bound to Slr1022 in the form of internal aldimine
B1			stoichiometry N [2]: 2; Km [3]: 20900 ± 3500 µM; kcat [3]: 0.16 s⁻¹; kcat/Km [3]: 7.7 M⁻¹ s⁻¹; Km [4]: 78100 ± 18700 µM; kcat [4]: 0.14 s⁻¹; kcat/Km [4]: 1.8 M⁻¹ s⁻¹; Km [5]: 130 ± 30 µM; kcat [5]: 0.11 ± 0.01 s⁻¹; kcat/Km [5]: 846 M⁻¹ s⁻¹
B2	230 ± 20	0.32 ± 0.01	
B3	1390 ± 220	0.47 ± 0.03	
B4	470 ± 50	0.17 ± 0.01	
B5	140 ± 20	0.007 ± 0.002	
B6	590 ± 120	0.21 ± 0.01	
B7	110 ± 10	0.02 ± 0.0005	
B8	8810 ± 2960	3.67 ± 0.43	
B9	7770 ± 1760	1.17 ± 0.09	

From paper PMC10057298, “Kinetic Characterization and Catalytic Mechanism of N-Acetylornithine Aminotransferase Encoded by slr1022 Gene from Synechocystis sp. PCC6803” (International Journal of Molecular Sciences, 2023)
